Positions count from the first letter of the chain named. No end group written: not given here. *: point of attachment. Biotin = O=C1N[C@H]2[C@H](CS[C@H]2CCCCC(=O)*)N1
Key:
[1] = molecular target: T1, pyr-apelin-13-biotin (pE-RPRLSHKGPMPF-biotin) (N-terminal pyroglutamate (pE); C-terminal biotin); assay: SPR (Biacore), pyr-apelin-13-biotin on streptavidin chip
T1 construct: also called pyrAPL13-Biotin
T1 peptide: ERPRLSHKGPMPF
Procedure: (§1) Anti-apelin mAbs at four different concentrations (12.5 nM, 25 nM, 50 nM and 100 nM) were captured on the chip surface. The on- and off-rate for antibody-antigen binding were measured, curve fitted and calculated.

[2] = molecular target: T2, apelin-13-biotin (…-biotin) (C-terminal biotin); assay: SPR (Biacore), apelin-13-biotin on streptavidin chip
T2 construct: also called APL13-Biotin
Procedure: as §1

Biotin-APL17 = molecular target: T3, Biotin-APL17; assay: ELISA, peptide on neutravidin plate, mAb 200 ng/ml, A405
T3 peptide: Biotin-KFRRQRPRLSHKGPMPF
Procedure: (§2) FIGS. 1A-1C show binding of anti-apelin mAbs to various biotinylated apelin peptides measured by ELISA. Biotinylated apelin peptides were immobilized on ELISA plates coated with neutravidin and purified recombinant rabbit anti-apelin mAbs were added for binding to the peptides on the plates. The binding was detected by adding a goat anti-rabbit IgG Fc-conjugated to alkaline phosphatase and PNPP substrate, and measured as the absorbance at 405 nm.
(§3) For the binding assay, neutravidin in carbonate coating buffer was coated on high binding ELISA plates at 1 μg/ml overnight. Peptides were added at 4 μg/ml after the plates were blocked with 1% BSA in TBS. After incubation of the plates at room temperature for 60 minutes, the plates were washed and then purified recombinant rabbit antibodies were added at 200 ng/ml. Following rabbit antibody binding to the peptides on the plates at room temperature for 90 minutes, goat anti-rabbit IgG Fc-conjugated to alkaline phosphatase was added, and antibody-antigen binding was detected by adding PNPP substrate and reading absorbance of ELISA plates at 405 nm. Each mAb was assayed in duplicate.

APL17-Biotin = molecular target: T4, APL17-Biotin; assay: as above
T4 peptide: KFRRQRPRLSHKGPMPF-biotin
Procedure: as §2, §3

[3] = molecular target: T1, pyr-apelin-13-biotin …; assay: as above
Procedure: as §2, §3

[4] = molecular target: T5, biotin-apelin-13 (biotin-…) (N-terminal biotin); assay: SPR (Biacore), biotin-apelin-13 on streptavidin CM5 chip, mAb at 12.5-100 nM
T5 construct: also called Biotin-APL13
Procedure: as §1

[5] = molecular target: T5, biotin-apelin-13 (biotin-…); assay: SPR (Biacore) with biotin-apelin-13, humanized IgG1 mAb in HEK293 supernatant
Text: The rabbit anti-apelin mAb C8 was humanized to reduce the potential of immunogenicity when used in human patients. The sequences of the variable regions of the heavy and light chains (VH and VL) were compared with the human antibody sequences in the Protein Data Bank (PDB) database and a homology model was built by applying SWISS-modeling. The CDRs in both the heavy and light chains of the rabbit mAb were grafted into human frameworks that have the highest possibility of maintaining the proper structure likely required for antigen binding. Backmutations from human residue to rabbit residue were designed when necessary. The sequences of the humanized VH and VL regions are shown in Table 11 and Table 12, respectively. The humanized VH and VL regions were fused to human IgG1 heavy chain and kappa light chain constant regions, respectively, to generate humanized mAbs. Constructs corresponding to the mAb sequences were used for transient transfection in HEK 293 cells and the supernatants were analyzed for the affinity of each humanized mAb for apelin.

B1: anti-apelin mAb C10 (antibody, V domains shown)
VH: QSLEESGGRLVTPGGSLTLTCTVSGIDLNSYAIDWVRQAPGKGLEWIGVIAPSGTTYYPTWAKGRFTISKTSTTVDLKVTGLTTEDTATYFCAAYPIDPGSNIWGPGTLVTVSS
VL: DPVLTQTPSSVSAAVGGTATIGCQSSESVDYGNQLSWYQQKPGQPPKRLAYYVSILDAGVPSRFKGSGSGTQFTLTISDLECDDAATYYCQGGYISNLYPFGGGTEVVVQ
notes: recombinant rabbit IgG made in HEK293 cells
For B1, the Kd [1] was 0.0482 pM, the Kd [2] was 6.46 pM and the binding result (Biotin-APL17) was “no binding (tested: 200 ng/ml)”. B1: no binding (tested: 200 ng/ml) (APL17-Biotin).

B2: anti-apelin mAb C12 (antibody, V domains shown)
VH: QSLEESGGRLVTPGGSLTLTCTVSGIDLSSYAIDWVRQAPGKGLEWIGVIAPSSTTYYPTWAKGRFTISKTSSTTVDLKVIGLTTEDTATYFCAAYPIDPGSNVWGPGTLVTVSS
VL: B1 VL with A19V, A50T
notes: as for B1
For B2, the Kd [1] was 0.0555 pM, the Kd [2] was 3.55 pM and the binding result (Biotin-APL17) was “no binding (tested: 200 ng/ml)”. B2: no binding (tested: 200 ng/ml) (APL17-Biotin).

B3: anti-apelin mAb C17 (antibody, V domains shown)
VH: QSVEESGGRLVKPDETLTLTCAVSGIDLSSNAMNWVRQAPGEGLEWIGSMYTDGTTYYANWAKGRFTISRASSTTVDLKMTSLTAADTATYFCARGDIWGPGTLVTVSS
VL: QVLTQTASPVSAAVGGTVTISCQSSQSVYNNNWLAWFQQKPGQPPKRLIYGTSELASGVPSRFKGSGSGTQFTLTISGVQCDDAATYYCLGTYSSNIHVFGGGTEVVVK
notes: as for B1
In the case of B3, the binding result [3] is reported as “no binding (tested: 200 ng/ml)” and the Kd [4] is reported as 1060 pM.

B4: anti-apelin mAb C5 (antibody, V domains shown)
VH: QSVEESGGRLVTPGTPLTLTCTVSGFSLSGAWMNWVRQAPGKGLEWIGVVSSDDNIYYADWAKGRFTISKTSTTVDLKLTSPTTEDTATYFCARNLGTIWGPGTLVTVSS
VL: QVLTQTESPVSAAVGGTVTINCQSSQSVWSNYLSWFQQKPGQPPKVLIYGTSKLPSGVPSRFSGSGSGTEFTLTINDLECDDAATYYCAGGYSGHIYSFGGGTEVVVK
notes: as for B1
For B4, the binding result [3] was “no binding (tested: 200 ng/ml)” and the Kd [4] was 51300 pM.

B5: anti-apelin mAb C4 (antibody, V domains shown)
VH: LEQSGGGAEGGLVKPGGSLELCCKASGFTLSSSYWICWVRQAPGKGLEWIGCIHYGSSGTAYYASWVNGRFTLSRDIDQSTGCLQLNSLTAADTAMYYCARFLSDMYYYNLWGPGTLVTVSS
VL: QVLTQTPASVSAAVGGTVTINCQASQSIYNNNQLSWYQQKPGQPPKLLIYYASTLASGVSSRFKGSGSGTQFTLTISGVQCDDAATYYCQGQFNCRSADCHAFGGGTEVVVK
notes: as for B1
With B5 the binding result (Biotin-APL17) was “binds”, the binding result (APL17-Biotin) was “binds” and the Kd [4] was 4010 pM.

B6: anti-apelin mAb C9 (antibody, V domains shown)
VH: QEQLEESGGDLVKPEGSLTLTCTASGFSFSSSYWICWVRQAPGKGLEWIACIYQSGDGRTWYASWAEGRFTISKTSPTTVTLQMASLTAADTATYFCARCPHNTYSHFDLWGPSTLVTVSS
VL: DIVMTQTPASVEAAVGGTVTIKCQASQSINSWLSWYQQKPGQPPKPLIYGASNLASGVPSRFKGSGSGTQFTLTISDLECADAATYSCLGYYYSSYNSVGFWAFGGGTEVVVK
notes: as for B1
In the case of B6, the binding result (Biotin-APL17) is reported as “binds”, the binding result (APL17-Biotin) is reported as “binds” and the Kd [4] is reported as 14800 pM.

B7: humanized anti-apelin mAb A11 (antibody, V domains shown)
VH: QSLEESGGGLVQPGGSLRLSCAVSGIDLYSNRMSWVRQAPGKGLEWVSSIGSSPWYASWAQGRFTISRDNSNTLYLQMNSLTAEDTAVYYCAKGGYRPGASVWGQGTLVTVSS
VL: DIQLTQSPSSLSASVGDRVTITCQSSQSIYDNNDLAWYQQKPGKTPKRLIYLASSLDSGVPSRFSGSGSGTDFTLTISSLQPEDVATYYCAGGYSGDIYTFGGGTKVEIK
notes: humanized from C8; tested as HEK293 supernatant
Binder B7 has a Kd [5] of 0.126 pM.

B8: humanized anti-apelin mAb A33 (antibody, V domains shown)
VH: B7 VH with S48G, L74V, V88T, Y90F
VL: AQVLTQSPSSLSASVGDRVTIACQSSQSVYDNNDLAWYQQKAGQTPKRLIYLASSLDSGVPSRFSGSGSGTEFTLTISSLQCEDVATYYCAGGYSGDIYTFGGGTEVVVE
notes: as for B7
B8 was tested, and the Kd [5] was 0.0143 pM.

B9: humanized anti-apelin mAb A43 (antibody, V domains shown)
VH: B7 VH with A22T, S48G, L74V, Q77K, L81P, V88T, Y90F
VL: B8 VL
notes: as for B7
B9 was tested, and the Kd [5] was 3.26 pM.

B10: humanized anti-apelin mAb A41 (antibody, V domains shown)
VH: B7 VH with A22T, S48G, L74V, Q77K, L81P, V88T, Y90F
VL: B7 VL
notes: as for B7
In the case of B10, the Kd [5] is reported as 0.067 pM.

B11: humanized anti-apelin mAb A21 (antibody, V domains shown)
VH: B7 VH with L74V, V88T, Y90F
VL: B7 VL
notes: as for B7
B11 was tested, and the Kd [5] was 0.00165 pM.

B12: anti-apelin mAb C11 (antibody, V domains shown)
VH: QSLEESGGRLVSPGGSLTLTCTVSGIDLSSHAMDWVRQAPGKGLEWIGVIAPNDATYYPTWARGRFTISKTSTTVGLKMTRLTTEDTATYFCAAYPIDAGANVWGPGTLVTVSS
VL: DPMLTQTASPVSAHVGGTVTINCQSSESVDYNNQLSWYQQKPGQPPKRLMYYVSTLDSGVPSRFKGSGSGTQFSLTISDLECDDAGTYYCQGGYISNLYPFGGGTEVVVK
notes: as for B1
For B12, the Kd [1] was 0.141 pM, the Kd [2] was 39.3 pM and the binding result (Biotin-APL17) was “binds”. B12: binds (APL17-Biotin).

B13: anti-apelin mAb C16 (antibody, V domains shown)
VH: QSLEESGGRLVTPGGSLTLTCTVSGIDLNSYAMDWVRQAPGKGLEWIGVIAPNHYTYYPTWARGRFTISKTSTTVDLKMTRLTTEDTATYFCATYPIESGSNIWGPGTLVIVSS
VL: B12 VL with M3V, A8P, P10S, H14A, N22G, D30G, Y31M
notes: as for B1
With B13 the Kd [1] was 6140 pM, the Kd [2] was 14300 pM and the binding result (Biotin-APL17) was “no binding (tested: 200 ng/ml)”. B13: no binding (tested: 200 ng/ml) (APL17-Biotin).

B14: anti-apelin mAb C22 (antibody, V domains shown)
VH: B13 VH with S30N, R81S, S99T
VL: DPVLTQTPSSVSAAVGGTVTISCQSSESVDMNNQLSWYHQKSGQPPKRLMYYVSTLDSGVPSRFKGSGSGTQFTLTISGVQCDDAGTYYCQGGYISNLYPFGGGTEVVVK
notes: as for B1
B14 was tested, and the Kd [1] was 0.155 pM, the Kd [2] was 107 pM and the binding result (Biotin-APL17) was “binds”. B14: binds (APL17-Biotin).

B15: anti-apelin mAb C20 (antibody, V domains shown)
VH: B13 VH with S30N, M33I, Y57C, R81S, T94A, S99T
VL: B12 VL with A8P, P10S, H14A, N22S, Y31M, T71I, Q72H, D83A
notes: as for B1
Work on B15 yielded a Kd [1] of 41.9 pM and a Kd [2] of 202 pM.

B16: anti-apelin mAb C14 (antibody, V domains shown)
VH: B12 VH with L3P, S12T, T22K, V23I, I26V, S30N, H31Y, F66L, G76D, A99V
VL: B12 VL with H14A
notes: as for B1
In the case of B16, the Kd [1] is reported as 6.49 pM, the Kd [2] is reported as 141 pM and the binding result (Biotin-APL17) is reported as “binds”. B16: binds (APL17-Biotin).

B17: anti-apelin mAb C26 (antibody, V domains shown)
VH: QEQLEESGGGLVQPEGSLTLTCTASGFTLSNYWMSWVRQAPGKGLVWIGCIDIGSDDTYYASWAKGRFTISRTSSTTVTLQVTSLTAADTATYFCARSGGLWGPGTLVTVSS
VL: QVLTQTPSSTSAAVGGTVTINCQASQSVYNNNDLAWYQQKPGQPPKRLIYEASKLASGVPSRFSGSGSGTQFTLTISDLECDDAATYYCAGGWSGNFYVFGGGTEVVVK
notes: as for B1
In the case of B17, the binding result [3] is reported as “no binding (tested: 200 ng/ml)” and the Kd [4] is reported as 119 pM.

B18: C13 (antibody, V domains shown)
VH: QSLEESGGRLAKPGETLTLTCTVSGIDLNSHAVDWVRQAPGKGLEWIGVIGPGGNTYYASWAKGRFTISKTSSTTVDLKMTSLTAEDTATFFCATYPIYSGDNIWGPGTLVTVSS
VL: DPVLTQTPPSVSAAVGGTVTINCQSSESVDNNNQLSWYQQKVGQPPKRLMYYASTLDSGVPSRFKGGGSGTHFTLTITDLECDDAATYYCQGGTATNIYPFGGGTEVVVK
notes: recombinant rabbit mAb; also called anti-apelin mAb C13
B18: binds (Biotin-APL17); binds [3].

From patent publication US20200362021A1 (PHANES THERAPEUTICS, published 2020)
